Assay results published in US20250144178A1 (KANAPH THERAPEUTICS, published 2025).
Changes are numbered by the printed parent chain.

T1: recombinant human FAP (human, UniProt Q12884 26-760)
T1 construct: Soluble analyte in SPR; The description calls FAP a homodimer; also called rhFAP
T1 sequence (looked up): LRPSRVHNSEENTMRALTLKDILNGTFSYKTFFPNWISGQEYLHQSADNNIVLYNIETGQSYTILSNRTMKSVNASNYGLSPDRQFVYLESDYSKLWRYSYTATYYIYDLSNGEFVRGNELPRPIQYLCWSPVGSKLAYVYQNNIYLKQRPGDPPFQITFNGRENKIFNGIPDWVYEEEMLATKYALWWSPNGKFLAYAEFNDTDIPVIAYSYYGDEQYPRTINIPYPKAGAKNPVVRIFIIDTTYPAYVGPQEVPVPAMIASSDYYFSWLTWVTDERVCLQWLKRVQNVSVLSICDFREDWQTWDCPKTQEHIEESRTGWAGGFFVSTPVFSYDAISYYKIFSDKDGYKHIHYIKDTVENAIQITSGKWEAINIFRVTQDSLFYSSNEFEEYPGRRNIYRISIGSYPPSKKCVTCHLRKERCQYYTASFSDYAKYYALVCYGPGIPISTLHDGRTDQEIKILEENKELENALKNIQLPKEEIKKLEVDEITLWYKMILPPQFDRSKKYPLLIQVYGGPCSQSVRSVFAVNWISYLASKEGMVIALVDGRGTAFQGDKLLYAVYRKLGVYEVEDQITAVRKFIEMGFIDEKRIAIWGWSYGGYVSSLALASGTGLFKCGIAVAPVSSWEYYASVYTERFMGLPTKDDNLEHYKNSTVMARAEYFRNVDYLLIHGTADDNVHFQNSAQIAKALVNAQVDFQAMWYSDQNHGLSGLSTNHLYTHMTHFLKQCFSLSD

B1: T1.04 (anti-hu FAP/hu IL-12, hu IgG1 DANG (2 + 1)) (bispecific antibody)
heavy: QVQLVQSGAEVKKPGASVKVSCKTSRYTFTEYTIHWVRQAPGQRLEWIGGINPNNGIPNYNQKFKGRVTITVDTSASTAYMELSSLRSEDTAVYYCARRRIAYGYDEGHAMDYWGQGTLVTVSSGGGGSGGGGSGGGGSQVQLVQSGAEVKKPGASVKVSCKTSRYTFTEYTIHWVRQAPGQRLEWIGGINPNNGIPNYNQKFKGRVTITVDTSASTAYMELSSLRSEDTAVYYCARRRIAYGYDEGHAMDYWGQGTLVTVSSASTKGPSVFPLAPSSKSTSGGTAALGCLVKDYFPEPVTVSWNSGALTSGVHTFPAVLQSSGLYSLSSVVTVPSSSLGTQTYICNVNHKPSNTKVDKKVEPKSCDKTHTCPPCPAPELLGGPSVFLFPPKPKDTLMISRTPEVTCVVVAVSHEDPEVKFNWYVDGVEVHNAKTKPREEQYGSTYRVVSVLTVLHQDWLNGKEYKCKVSNKALPAPIEKTISKAKGQPREPQVYTLPPSRDELTKNQVSLWCLVKGFYPSDIAVEWESNGQPENNYKTTPPVLDSDGSFFLYSKLTVDKSRWQQGNVFSCSVMHEALHNHYTQKSLSLSPGK
light: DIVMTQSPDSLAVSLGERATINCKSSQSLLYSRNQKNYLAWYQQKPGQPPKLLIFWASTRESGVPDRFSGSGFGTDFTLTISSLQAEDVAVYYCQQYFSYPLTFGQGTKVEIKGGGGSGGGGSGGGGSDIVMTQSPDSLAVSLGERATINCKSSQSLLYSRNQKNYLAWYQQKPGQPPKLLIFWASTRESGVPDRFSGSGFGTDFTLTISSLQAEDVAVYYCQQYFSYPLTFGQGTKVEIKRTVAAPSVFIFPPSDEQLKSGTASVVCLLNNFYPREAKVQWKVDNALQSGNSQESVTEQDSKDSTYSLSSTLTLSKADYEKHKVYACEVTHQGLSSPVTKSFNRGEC
chain: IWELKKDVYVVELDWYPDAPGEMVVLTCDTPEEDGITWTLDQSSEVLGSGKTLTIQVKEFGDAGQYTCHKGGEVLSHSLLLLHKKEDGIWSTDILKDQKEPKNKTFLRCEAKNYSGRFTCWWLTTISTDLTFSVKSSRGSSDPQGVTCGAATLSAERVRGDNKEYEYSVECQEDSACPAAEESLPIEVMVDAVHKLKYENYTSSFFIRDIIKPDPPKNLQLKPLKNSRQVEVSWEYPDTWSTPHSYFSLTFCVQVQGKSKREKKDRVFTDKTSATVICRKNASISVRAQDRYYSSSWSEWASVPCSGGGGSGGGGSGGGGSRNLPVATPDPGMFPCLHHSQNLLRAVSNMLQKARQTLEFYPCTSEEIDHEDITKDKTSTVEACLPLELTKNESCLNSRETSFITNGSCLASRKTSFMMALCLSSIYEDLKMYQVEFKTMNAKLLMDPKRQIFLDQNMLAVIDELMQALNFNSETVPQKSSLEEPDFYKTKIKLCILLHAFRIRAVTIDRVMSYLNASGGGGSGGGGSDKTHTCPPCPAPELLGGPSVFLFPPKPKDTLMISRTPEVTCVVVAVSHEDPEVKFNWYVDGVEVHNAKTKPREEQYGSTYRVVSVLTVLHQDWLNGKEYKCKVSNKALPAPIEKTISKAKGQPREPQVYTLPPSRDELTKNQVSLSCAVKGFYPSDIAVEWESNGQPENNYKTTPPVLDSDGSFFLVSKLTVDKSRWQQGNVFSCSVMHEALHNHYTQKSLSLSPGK
notes: DVD-Ig form of the anti-FAP arm, knob-in-hole with the IL-12 arm
B2: T1.05 (anti-hu FAP/hu IL-12 mut2, hu IgG1 DANG (2 + 1)) (bispecific antibody)
heavy: B1 heavy
light: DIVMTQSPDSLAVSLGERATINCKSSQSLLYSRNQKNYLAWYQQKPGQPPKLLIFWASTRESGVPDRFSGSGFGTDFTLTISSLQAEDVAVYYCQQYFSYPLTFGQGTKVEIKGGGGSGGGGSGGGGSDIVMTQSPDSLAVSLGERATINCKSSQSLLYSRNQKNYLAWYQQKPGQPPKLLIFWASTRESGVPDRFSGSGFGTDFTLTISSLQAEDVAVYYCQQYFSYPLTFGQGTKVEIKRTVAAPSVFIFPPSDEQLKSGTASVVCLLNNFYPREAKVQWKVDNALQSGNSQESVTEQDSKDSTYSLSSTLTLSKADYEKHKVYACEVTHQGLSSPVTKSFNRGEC
chain: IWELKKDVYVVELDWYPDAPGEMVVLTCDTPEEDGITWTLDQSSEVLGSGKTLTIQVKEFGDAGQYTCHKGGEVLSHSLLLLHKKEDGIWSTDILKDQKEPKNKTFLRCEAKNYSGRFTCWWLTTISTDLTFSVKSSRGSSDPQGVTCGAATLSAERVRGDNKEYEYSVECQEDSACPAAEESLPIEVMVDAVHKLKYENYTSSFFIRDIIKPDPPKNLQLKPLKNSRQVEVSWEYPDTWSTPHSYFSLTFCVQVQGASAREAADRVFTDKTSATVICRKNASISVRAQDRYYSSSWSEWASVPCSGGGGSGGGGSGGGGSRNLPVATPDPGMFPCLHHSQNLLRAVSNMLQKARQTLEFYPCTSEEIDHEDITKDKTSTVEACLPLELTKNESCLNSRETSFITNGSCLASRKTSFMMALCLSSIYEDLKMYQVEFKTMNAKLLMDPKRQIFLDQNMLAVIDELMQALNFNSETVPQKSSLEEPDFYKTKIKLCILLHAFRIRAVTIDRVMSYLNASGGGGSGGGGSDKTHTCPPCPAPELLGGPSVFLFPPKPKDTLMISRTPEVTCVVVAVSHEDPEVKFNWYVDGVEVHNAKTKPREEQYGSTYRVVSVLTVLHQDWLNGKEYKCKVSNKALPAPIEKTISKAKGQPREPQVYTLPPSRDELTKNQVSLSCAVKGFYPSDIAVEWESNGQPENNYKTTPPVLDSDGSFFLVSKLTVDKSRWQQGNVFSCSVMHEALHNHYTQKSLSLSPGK
notes: DVD-Ig form of the anti-FAP arm, knob-in-hole with the IL-12 mut2 arm
B3: T1.06 (anti-hu FAP/hu IL-12, hu IgG1 DANG (2 + 1, HC scFv)) (bispecific antibody)
heavy: QVQLVQSGAEVKKPGASVKVSCKTSRYTFTEYTIHWVRQAPGQRLEWIGGINPNNGIPNYNQKFKGRVTITVDTSASTAYMELSSLRSEDTAVYYCARRRIAYGYDEGHAMDYWGQGTLVTVSSASTKGPSVFPLAPSSKSTSGGTAALGCLVKDYFPEPVTVSWNSGALTSGVHTFPAVLQSSGLYSLSSVVTVPSSSLGTQTYICNVNHKPSNTKVDKKVEPKSCDKTHTCPPCPAPELLGGPSVFLFPPKPKDTLMISRTPEVTCVVVAVSHEDPEVKFNWYVDGVEVHNAKTKPREEQYGSTYRVVSVLTVLHQDWLNGKEYKCKVSNKALPAPIEKTISKAKGQPREPQVYTLPPSRDELTKNQVSLWCLVKGFYPSDIAVEWESNGQPENNYKTTPPVLDSDGSFFLYSKLTVDKSRWQQGNVFSCSVMHEALHNHYTQKSLSLSPGKGGGGSGGGGSGGGGSQVQLVQSGAEVKKPGASVKVSCKTSRYTFTEYTIHWVRQAPGQRLEWIGGINPNNGIPNYNQKFKGRVTITVDTSASTAYMELSSLRSEDTAVYYCARRRIAYGYDEGHAMDYWGQGTLVTVSSGGGGSGGGGSGGGGSGGGGSDIVMTQSPDSLAVSLGERATINCKSSQSLLYSRNQKNYLAWYQQKPGQPPKLLIFWASTRESGVPDRFSGSGFGTDFTLTISSLQAEDVAVYYCQQYFSYPLTFGQGTKVEIK
light: not shown
chain: not shown
notes: Anti-FAP scFv at the C-terminus of the heavy chain; knob-in-hole with the IL-12 arm
B4: T1.07 (anti-hu FAP/hu IL-12 mut2, hu IgG1 DANG (2 + 1, HC scFv)) (bispecific antibody)
heavy: B3 heavy
light: not shown
chain: not shown
notes: Anti-FAP scFv at the C-terminus of the heavy chain; knob-in-hole with the IL-12 mut2 arm
B5: T1.08 (anti-hu FAP/hu IL-12, hu IgG1 DANG (2 + 1, LC scFv)) (bispecific antibody)
heavy: QVQLVQSGAEVKKPGASVKVSCKTSRYTFTEYTIHWVRQAPGQRLEWIGGINPNNGIPNYNQKFKGRVTITVDTSASTAYMELSSLRSEDTAVYYCARRRIAYGYDEGHAMDYWGQGTLVTVSSASTKGPSVFPLAPSSKSTSGGTAALGCLVKDYFPEPVTVSWNSGALTSGVHTFPAVLQSSGLYSLSSVVTVPSSSLGTQTYICNVNHKPSNTKVDKKVEPKSCDKTHTCPPCPAPELLGGPSVFLFPPKPKDTLMISRTPEVTCVVVAVSHEDPEVKFNWYVDGVEVHNAKTKPREEQYGSTYRVVSVLTVLHQDWLNGKEYKCKVSNKALPAPIEKTISKAKGQPREPQVYTLPPSRDELTKNQVSLWCLVKGFYPSDIAVEWESNGQPENNYKTTPPVLDSDGSFFLYSKLTVDKSRWQQGNVFSCSVMHEALHNHYTQKSLSLSPGK
light: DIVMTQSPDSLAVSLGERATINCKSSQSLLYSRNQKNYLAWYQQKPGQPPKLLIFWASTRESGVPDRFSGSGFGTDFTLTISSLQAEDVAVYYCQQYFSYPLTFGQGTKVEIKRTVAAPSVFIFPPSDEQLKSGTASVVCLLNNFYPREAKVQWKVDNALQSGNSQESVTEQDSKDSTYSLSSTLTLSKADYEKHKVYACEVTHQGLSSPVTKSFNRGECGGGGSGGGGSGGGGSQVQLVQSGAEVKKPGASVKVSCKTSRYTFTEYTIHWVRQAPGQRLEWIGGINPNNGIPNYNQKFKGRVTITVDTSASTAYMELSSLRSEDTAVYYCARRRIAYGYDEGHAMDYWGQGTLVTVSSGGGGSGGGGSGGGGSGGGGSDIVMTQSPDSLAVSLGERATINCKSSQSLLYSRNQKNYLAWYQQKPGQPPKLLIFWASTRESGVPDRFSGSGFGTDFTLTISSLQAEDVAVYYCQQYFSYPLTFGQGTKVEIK
chain: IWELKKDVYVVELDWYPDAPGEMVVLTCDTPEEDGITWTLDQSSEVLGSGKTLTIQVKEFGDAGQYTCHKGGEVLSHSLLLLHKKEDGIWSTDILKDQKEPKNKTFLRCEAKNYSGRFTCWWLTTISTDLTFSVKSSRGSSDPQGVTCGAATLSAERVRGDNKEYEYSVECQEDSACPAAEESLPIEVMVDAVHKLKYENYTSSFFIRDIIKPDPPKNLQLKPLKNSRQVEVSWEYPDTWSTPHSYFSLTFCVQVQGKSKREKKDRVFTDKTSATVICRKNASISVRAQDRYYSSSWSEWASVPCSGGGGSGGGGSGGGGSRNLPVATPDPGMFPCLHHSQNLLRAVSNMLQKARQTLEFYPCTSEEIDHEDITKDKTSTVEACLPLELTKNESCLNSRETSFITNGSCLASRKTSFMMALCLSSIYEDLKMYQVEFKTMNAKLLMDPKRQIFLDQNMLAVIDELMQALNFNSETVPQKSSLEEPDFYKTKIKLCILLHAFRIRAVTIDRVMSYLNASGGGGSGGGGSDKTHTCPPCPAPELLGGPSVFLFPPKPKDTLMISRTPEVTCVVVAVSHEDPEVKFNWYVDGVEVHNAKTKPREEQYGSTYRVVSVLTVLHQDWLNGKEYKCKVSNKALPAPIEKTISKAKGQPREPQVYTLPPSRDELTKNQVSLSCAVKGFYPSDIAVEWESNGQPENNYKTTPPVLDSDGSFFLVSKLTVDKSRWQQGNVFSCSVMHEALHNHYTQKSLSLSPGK
notes: Anti-FAP scFv at the C-terminus of the light chain; knob-in-hole with the IL-12 arm
B6: T1.09 (anti-hu FAP/hu IL-12 mut2, hu IgG1 DANG (2 + 1, LC scFv)) (bispecific antibody)
heavy: B5 heavy
light: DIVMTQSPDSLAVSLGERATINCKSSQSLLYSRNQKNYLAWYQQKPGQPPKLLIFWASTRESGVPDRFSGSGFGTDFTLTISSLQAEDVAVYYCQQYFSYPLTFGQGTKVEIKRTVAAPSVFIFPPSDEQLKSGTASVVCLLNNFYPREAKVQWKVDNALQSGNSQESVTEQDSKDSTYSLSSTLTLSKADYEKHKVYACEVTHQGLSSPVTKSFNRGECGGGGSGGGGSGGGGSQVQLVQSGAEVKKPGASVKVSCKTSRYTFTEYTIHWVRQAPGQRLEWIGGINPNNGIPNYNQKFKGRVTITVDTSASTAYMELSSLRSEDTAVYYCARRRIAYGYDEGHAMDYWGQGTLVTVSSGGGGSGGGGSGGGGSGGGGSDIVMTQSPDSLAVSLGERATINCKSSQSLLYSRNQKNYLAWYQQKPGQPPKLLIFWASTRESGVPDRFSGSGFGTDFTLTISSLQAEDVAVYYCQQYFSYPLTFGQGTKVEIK
chain: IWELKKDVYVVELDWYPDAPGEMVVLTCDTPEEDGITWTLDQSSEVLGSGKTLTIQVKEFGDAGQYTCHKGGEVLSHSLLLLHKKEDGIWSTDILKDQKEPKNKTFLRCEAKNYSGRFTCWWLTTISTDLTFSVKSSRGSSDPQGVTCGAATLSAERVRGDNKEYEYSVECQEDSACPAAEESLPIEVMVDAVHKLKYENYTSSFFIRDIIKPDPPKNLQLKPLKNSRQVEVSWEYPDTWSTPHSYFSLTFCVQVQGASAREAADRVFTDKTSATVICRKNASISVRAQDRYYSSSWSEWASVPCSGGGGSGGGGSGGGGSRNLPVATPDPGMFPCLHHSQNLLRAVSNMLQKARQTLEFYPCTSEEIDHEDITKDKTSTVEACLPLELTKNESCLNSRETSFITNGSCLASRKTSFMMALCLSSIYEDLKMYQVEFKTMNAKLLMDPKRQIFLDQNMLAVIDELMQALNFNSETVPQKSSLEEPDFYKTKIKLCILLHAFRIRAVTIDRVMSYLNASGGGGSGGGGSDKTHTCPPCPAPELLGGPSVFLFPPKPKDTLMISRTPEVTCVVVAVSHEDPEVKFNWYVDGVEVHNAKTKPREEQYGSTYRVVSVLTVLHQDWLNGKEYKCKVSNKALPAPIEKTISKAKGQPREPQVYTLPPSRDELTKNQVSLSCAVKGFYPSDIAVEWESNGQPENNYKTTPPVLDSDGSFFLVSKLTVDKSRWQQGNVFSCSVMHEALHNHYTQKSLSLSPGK
notes: Anti-FAP scFv at the C-terminus of the light chain; knob-in-hole with the IL-12 mut2 arm
B7: T1.10 (anti-hu FAP/anti-hu FAP-hu IL-12, hu IgG1 DANG (2 + 1)) (antibody)
heavy 1: B5 heavy
heavy 2: QVQLVQSGAEVKKPGASVKVSCKTSRYTFTEYTIHWVRQAPGQRLEWIGGINPNNGIPNYNQKFKGRVTITVDTSASTAYMELSSLRSEDTAVYYCARRRIAYGYDEGHAMDYWGQGTLVTVSSASTKGPSVFPLAPSSKSTSGGTAALGCLVKDYFPEPVTVSWNSGALTSGVHTFPAVLQSSGLYSLSSVVTVPSSSLGTQTYICNVNHKPSNTKVDKKVEPKSCDKTHTCPPCPAPELLGGPSVFLFPPKPKDTLMISRTPEVTCVVVAVSHEDPEVKFNWYVDGVEVHNAKTKPREEQYGSTYRVVSVLTVLHQDWLNGKEYKCKVSNKALPAPIEKTISKAKGQPREPQVYTLPPSRDELTKNQVSLSCAVKGFYPSDIAVEWESNGQPENNYKTTPPVLDSDGSFFLVSKLTVDKSRWQQGNVFSCSVMHEALHNHYTQKSLSLSPGGGGGSGGGGSGGGGSIWELKKDVYVVELDWYPDAPGEMVVLTCDTPEEDGITWTLDQSSEVLGSGKTLTIQVKEFGDAGQYTCHKGGEVLSHSLLLLHKKEDGIWSTDILKDQKEPKNKTFLRCEAKNYSGRFTCWWLTTISTDLTFSVKSSRGSSDPQGVTCGAATLSAERVRGDNKEYEYSVECQEDSACPAAEESLPIEVMVDAVHKLKYENYTSSFFIRDIIKPDPPKNLQLKPLKNSRQVEVSWEYPDTWSTPHSYFSLTFCVQVQGKSKREKKDRVFTDKTSATVICRKNASISVRAQDRYYSSSWSEWASVPCSGGGGSGGGGSGGGGSRNLPVATPDPGMFPCLHHSQNLLRAVSNMLQKARQTLEFYPCTSEEIDHEDITKDKTSTVEACLPLELTKNESCLNSRETSFITNGSCLASRKTSFMMALCLSSIYEDLKMYQVEFKTMNAKLLMDPKRQIFLDQNMLAVIDELMQALNFNSETVPQKSSLEEPDFYKTKIKLCILLHAFRIRAVTIDRVMSYLNAS
light: not shown
notes: single-chain IL-12 at the C-terminus of the hole heavy chain
B8: T1.11 (anti-hu FAP/anti-hu FAP-hu IL-12 mut2, hu IgG1 DANG (2 + 1)) (antibody)
heavy 1: B5 heavy
heavy 2: B7 heavy 2 with K726A, K728A, K731A, K732A
light: not shown
notes: single-chain IL-12 mut2 at the C-terminus of the hole heavy chain

Molecular target: T1, recombinant human FAP
Experiment: SPR, captured by anti-human IgG (Fc), human FAP analyte, 1:1 binding model
Experimental: Bindings of T1.04, T1.05, T1.06, T1.07, T1.08, T1.09, T1.10 and T1.11 to recombinant human […] were identified by surface plasmon resonance (SPR). The surface of the CM5 chip was activated with a 1:1 mixture of […] (N-hydroxysuccinimide) and […] (1-Ethyl-3-(3-dimethylaminopropyl) carbodiimide), and 25 μg/ml of anti-human IgG (Fc) antibody was immobilized for 400 seconds at a rate of 10 μl/min. The remaining active ester groups were blocked with 1 M ethanolamine.
Specifically, human proteins T1.04, T1.05, T1.06, T1.07, T1.08, T1.09, T1.10 and T1.11 were diluted to 1 μg/ml, 1 μg/ml, 1 μg/ml, 1 μg/ml, 0.5 μg/ml, 0.5 μg/ml, 0.5 μg/ml, and 1 μg/ml, respectively, and reacted on a CM5 chip immobilized with an anti-human IgG (Fc) antibody. The recombinant human FAP was diluted to 25 nM or 50 nM in 1×HBS-EP+buffer solution and diluted by serial dilution. The diluted recombinant human FAP was reacted at a rate of 30 μl/min. The association and dissociation times were 180 seconds and 400 seconds, respectively. After the dissociation, stabilization was performed for 60 seconds, and then a regeneration was performed for 30 seconds with a 10 mM glycine pH 1.5 solution at a rate of 30 μl/min.

Kd [nM] | koff [s⁻¹] | kon [M⁻¹ s⁻¹] | Binder
0.0257 | 1.5e-05 | 583000 | B1
0.0932 | 5.83e-05 | 625000 | B2
0.596 | 6.22e-05 | 104000 | B3
0.128 | 7.64e-05 | 597000 | B4
0.177 | 7.87e-05 | 446000 | B5
0.214 | 0.000111 | 517000 | B6
0.479 | 7.48e-05 | 156000 | B7
0.267 | 3.19e-05 | 120000 | B8
